Test results as given in patent US20170252458A1 (EISAI R AND D MANAGEMENT, published 2017).
Several values for one entry are separate records, joined by “and”; a condition that tells them apart may be missing. Identical values can stand only once.

Target: T1, Recombinant human folate receptor alpha (human, UniProt P15328 25-234)
T1 construct: also called FRA; FR
Test: ELISA, recombinant human FRA coated
Method: Coating solution was discarded and the plates were washed three times using 1× PBS with 0.05% Tween-20 (PBST) buffer. Plates were blocked in 300 μL blocking buffer (1% BSA in PBST) at room temperature for 2 hours on an orbital shaker. […] Blocking buffer was discarded and 100 μL/well of diluted antibody was added to the plates. Plates were incubated at room temperature for 2 hours on an orbital shaker. Antibody solution was discarded and plates were washed three times using PBST. 100 μL/well of goat-anti-human IgG (H+L)-HRP (1:10,000 dilution in blocking buffer) solution was added to the plates, and plates were incubated at room temperature for 1 hour on an orbital shaker. Secondary antibody solution was discarded and plates were washed three times using PBST. 100 μL/well of QuantaBlu fluorogenic peroxidase substrate working solution (Thermo, Cat No. 15169) was added to the plates, and plates were incubated at room temperature for 30 min. Fluorescence was read at excitation 325 nm/emission 420 nm using a SpectraMax M5 (Molecular Devices). Data was analyzed using SoftMaxPro 5.4.2 software with 4-parameter fitting.

T1 sequence (P15328 25-234 limits assumed): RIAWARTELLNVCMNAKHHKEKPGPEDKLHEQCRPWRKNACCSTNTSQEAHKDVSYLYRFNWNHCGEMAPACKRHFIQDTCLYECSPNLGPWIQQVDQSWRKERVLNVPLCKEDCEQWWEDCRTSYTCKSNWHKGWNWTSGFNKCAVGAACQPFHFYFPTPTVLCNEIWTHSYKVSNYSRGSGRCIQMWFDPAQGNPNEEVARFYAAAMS

Binder	EC50
MORAb003-ER1244623 (antibody, human IgG1, kappa, V domains shown, NHS-PEG3-triazole-PEG3-sulfonamide-pAB-eribulin on lysines, sites not given, Antibody-drug conjugate; DAR 0.55 (LC-MS)) VH: EVQLVESGGGVVQPGRSLRLSCSASGFTFSGYGLSWVRQAPGKGLEWVAMISSGGSYTYYADSVKGRFAISRDNAKNTLFLQMDSLRPEDTGVYFCARHGDDPAWFAYWGQGTPVTVSS VL: DIQLTQSPSSLSASVGDRVTITCSVSSSISSNNLHWYQQKPGKAPKPWIYGTSNLASGVPSRFSGSGSGTDYTFTISSLQPEDIATYYCQQWSSYPYMYTFGQGTKVEIKR	0.00454 µg/mL and 0.03 nM
MORAb003-DBCO-PEG2 eribulin (antibody, human IgG1, kappa, V domains shown, NHS-PEG4-DBCO on lysines, then azido-PEG2-eribulin by SPAAC; sites not given, Antibody-drug conjugate) VH: EVQLVESGGGVVQPGRSLRLSCSASGFTFSGYGLSWVRQAPGKGLEWVAMISSGGSYTYYADSVKGRFAISRDNAKNTLFLQMDSLRPEDTGVYFCARHGDDPAWFAYWGQGTPVTVSS VL: DIQLTQSPSSLSASVGDRVTITCSVSSSISSNNLHWYQQKPGKAPKPWIYGTSNLASGVPSRFSGSGSGTDYTFTISSLQPEDIATYYCQQWSSYPYMYTFGQGTKVEIKR	0.0191 µg/mL and 0.13 nM
MORAb003-DBCO-ER1237508 (antibody, human IgG1, kappa, V domains shown, NHS-PEG4-DBCO on lysines, then azide-PEG3-disulfide-pAB-eribulin by SPAAC; sites not given, Antibody-drug conjugate) VH: EVQLVESGGGVVQPGRSLRLSCSASGFTFSGYGLSWVRQAPGKGLEWVAMISSGGSYTYYADSVKGRFAISRDNAKNTLFLQMDSLRPEDTGVYFCARHGDDPAWFAYWGQGTPVTVSS VL: DIQLTQSPSSLSASVGDRVTITCSVSSSISSNNLHWYQQKPGKAPKPWIYGTSNLASGVPSRFSGSGSGTDYTFTISSLQPEDIATYYCQQWSSYPYMYTFGQGTKVEIKR	0.0241 µg/mL and 0.16 nM
MORAb003-DBCO-PEG4 VCP eribulin (antibody, human IgG1, kappa, V domains shown, NHS-PEG4-DBCO on lysines, then azido-PEG4-Val-Cit-pAB-eribulin by SPAAC; sites not given, Antibody-drug conjugate) VH: EVQLVESGGGVVQPGRSLRLSCSASGFTFSGYGLSWVRQAPGKGLEWVAMISSGGSYTYYADSVKGRFAISRDNAKNTLFLQMDSLRPEDTGVYFCARHGDDPAWFAYWGQGTPVTVSS VL: DIQLTQSPSSLSASVGDRVTITCSVSSSISSNNLHWYQQKPGKAPKPWIYGTSNLASGVPSRFSGSGSGTDYTFTISSLQPEDIATYYCQQWSSYPYMYTFGQGTKVEIKR	0.016 µg/mL and 0.11 nM
MORAb003-DBCO-PEG4 eribulin (antibody, human IgG1, kappa, V domains shown, NHS-PEG4-DBCO on lysines, then azido-PEG4-eribulin by SPAAC; sites not given, Antibody-drug conjugate) VH: EVQLVESGGGVVQPGRSLRLSCSASGFTFSGYGLSWVRQAPGKGLEWVAMISSGGSYTYYADSVKGRFAISRDNAKNTLFLQMDSLRPEDTGVYFCARHGDDPAWFAYWGQGTPVTVSS VL: DIQLTQSPSSLSASVGDRVTITCSVSSSISSNNLHWYQQKPGKAPKPWIYGTSNLASGVPSRFSGSGSGTDYTFTISSLQPEDIATYYCQQWSSYPYMYTFGQGTKVEIKR	0.0133 µg/mL and 0.09 nM
MORAb003-DBCO-ER1138856 (antibody, human IgG1, kappa, V domains shown, NHS-PEG4-DBCO on lysines, then azide-PEG3-sulfonamide-pAB-eribulin by SPAAC; sites not given, Antibody-drug conjugate) VH: EVQLVESGGGVVQPGRSLRLSCSASGFTFSGYGLSWVRQAPGKGLEWVAMISSGGSYTYYADSVKGRFAISRDNAKNTLFLQMDSLRPEDTGVYFCARHGDDPAWFAYWGQGTPVTVSS VL: DIQLTQSPSSLSASVGDRVTITCSVSSSISSNNLHWYQQKPGKAPKPWIYGTSNLASGVPSRFSGSGSGTDYTFTISSLQPEDIATYYCQQWSSYPYMYTFGQGTKVEIKR	0.015 µg/mL and 0.1 nM
